Patent US11904004B2, “Anti-CD277 antibodies” (INSTITUT NATIONAL DE LA SANTE ET DE LA RECHERCHE MEDICALE …, priority 2010, dated 2024)

Experiments:
monocytes = test: Apoptosis detection (Annexin V), survival of monocytes; assay type: cell-based, human; conditions: both monocytes and iDC; data not shown
Description: Blood samples were obtained from 5 healthy volunteers enrolled among the staff members, after informed consent. Monocytes were separated from peripheral blood mononuclear cells, and isolated using the MACS CD14 isolation kit (Miltenyi Biotech, Auburn, Calif. USA). Monocytes were cultured for 5 days with 200 ng/ml of recombinant human GM-CSF and 10 ng/ml recombinant human IL-4 (Schering-Plough Research Institute). These cells were termed immature dendritic cells (iDC). To achieve the stimulation, monocytes and iDC were cultured with 10 ng/ml of LPS, ligand for TLR4, 30 μg/ml of 8848 (Sigma-Aldrich, Milano, Italy), ligand for TLR7/8 and with […] of poly (I:C) (Sigma-Aldrich), ligand for TLR3, and were harvested after 48 h. The cells were cultured in RPMI 1640 supplemented with 10% heat-inactivated FCS, 5 mM L-glutamine and 50 IU/ml penicillin-streptomycin (from here on referred to as complete medium).
Monocytes and iDC were cultured on plastic coated with anti-BT3 mAb (clone 20.1) or with isotype-matched irrelevant mAb. As control, the cells were stimulated with 20 ng/ml recombinant human GM-CSF (Schering-Plough Research Institute). After three days, cells were harvested, stained with Annexin V-FITC (Bender MedSystems, Wien, Austria) and analysed by flow cytometry.

[1] = test system: Daudi, K562 or Raji cells lines; test: Anti-tumor cytolysis by Vγ9Vδ2 T cells against tumor cell lines (CD107a/b degranulation); assay type: cell-based, human
Description: We used for γδ T cells labelling in purity test after expansion, anti-CD3 PE-Cy7 and anti-Vδ2 FITC mAb (BD Pharmingen). For CD277 characterisation in different subsets PBMC were incubated with the following antibodies and molecules: anti-CD3 PE-Cy5 (BD Pharmingen), anti-CD4 PB (BD Pharmingen), anti-CD8 PB (BD Pharmingen), anti-Vδ2 FITC (BD Pharmingen), anti-CD27 APC ALEXA FLUOR® 750 (CALTAG Laboratory), anti-CCR7 PECy7 (BD Pharmingen), anti-CD28 PE (Beckman Coulter), anti-CD45RA ECD (Beckman Coulter), LIVE/DEAD® Fixable Dead Cell Stain Kit (L34957, Invitrogen) and anti-CD277 labelled with ALEXA FLUOR® 647 (Protein labelling Kit ALEXA FLUOR® 647, Molecular Probes, Invitrogen). For analysis of CD107a and CD107b expression, γδ T cells and target cells were co-incubated at 37° C. with anti-CD107a FITC and anti-CD107b FITC in presence of monensin (10 μM, GOLIGISTOP®, BD Bioscience). […] All samples were measured on FACSCANTO® or FACSARIA® flow cytometers (BD Biosciences) using FACSDIVA® software. […]
Target cells were labelled with 20 μCi of 51Cr (PerkinElmer) for 1 h at 37° C. […] The radioactivity released by target cells was measured, 4 h later, on beta plate counter. The percentage of specific 51Cr lysis was calculated using the following equation: percent specific lysis=100×[(test release)−(spontaneous release)]/[(maximal release)−(spontaneous release)].

Vγ9Vδ2 T cells = test: Flow cytometry of Vγ9Vδ2 T cells co-cultured with AML blasts (trogocytosis, CD107a, cytokines); assay type: cell-based, human
Description: 2×10^5 PBMC were washed in PBS (Cambrex Bio Science) and incubated at 4° C. for 20 min with specified mAb. Following incubation and washing, samples were analyzed on LSRFORTESSA® or FACS CANTO® II (Becton Dickinson) using DIVA® software (BD bioscience, Mountain View, Calif.). For analysis of CD107 expression, γδ T cells were incubated at 37° C. in the presence of anti-CD107a and GOLGISTOP® with or without anti-BTN3A 20.1 mAb. After 4 hours, cells were collected, washed in PBS and analyzed by flow cytometry. To study cytokine production, cells were further permeabilized with PERMWASH® (BD bioscience) to allow intracellular staining with labeled antibodies. Trogocytosis of PKH67 (Sigma Aldrich) labeled blasts by γδ T cells was quantified as previously described^29.

primary AML blasts = test: NSG mouse/human primary AML blasts xenograft model; assay type: in vivo; conditions: NSG mice, UPN09 blasts; 250 μg mAb with 15×10^6 Vγ9Vδ2 T cells i.v. twice a week, weeks 8 to 10 post-graft
Description: NOD-SCID common γ-chain knockout mice (NSG) were purchased from Charles River France or bred in-house and maintained under specific pathogen-free conditions. All animal procedures were in accordance with protocols approved by the local Committee for Animal Experiments. Healthy 6- to 8-weeks-old female mice (n=15) received an injection of 0.2×10^6 luciferase transduced-U937 cells on Day 0, as described^13, and were then randomly assigned in 5 groups to receive intravenous injections of post-expansion-purified Vγ9Vδ2 T cells on Day 1 (30×10^6, 98.8% CD3+TCRVδ2+; Unité de Thérapie Cellulaire et Génique de Nantes) alone or combined to anti-BTN3A 20.1 mAb (250 μg) on Day 2 and 6. Controls comprised NSG mice infused with PBS, or anti-BTN3A 20.1 mAb alone. Mice were imaged with a Photon Imager (Biospace Lab, Paris, France) at different days. For the Primary AML blasts model, NSG mice received sublethal irradiation (2 Gy). On the day after, they received 1×10^6 of CD3-depleted blasts (CD3 depletion Kit, Miltenyi Biotec) isolated from UPN09. […] The peripheral blood number of blasts was quantified during engraftment, before and after treatment by Flow Cytometry (supplementary data 1B). Mice were sacrificed at week 11th post-graft and the number of blasts was quantified in their Bone Marrow (BM).

[2] = 4-hour co-culture with AML blasts

B1: mAb 20.1: murine anti-CD277 antibody obtainable from the hybridoma CNCM I-4402; agonist (antibody, V domains shown)
VH: QVQLQQSGAELVKPGASVKLSCKASGYTFTRYYLYWVKQRPGQGLEWIGEINPNNGGTKFNEKFKSKATLTVDKSSRTTYIQLSSLTSEDSAVYYCSREDDYDGTPDAMDYWGQGTAVTVSS
VL: DIQMNQSPSSLSASLGDTITITCHASQNINLWLSWYQQRPGNIPKLLIYRASNLHTGVPSRFSGSGSATGFTLTISSLQPEDIATYYCQQGHSYPYTFGGGTKLDIK
lowest anti-BT3 mAb dilution able to promote a good survival capability (monocytes): 10 µg/mL | function/activation of Vγ9Vδ2 T cells against tumor targets (CD107a/b degranulation assay) [1]: potentiated or revealed | cytokine production of IFNγ by Vγ9Vδ2 T cells (Vγ9Vδ2 T cells; [2]): greater | cytokine production of TNFα by Vγ9Vδ2 T cells (Vγ9Vδ2 T cells; [2]): greater | degranulation assessed by the expression of CD107a (Vγ9Vδ2 T cells; [2]): greater ability to degranulate | trogocytosis of AML blasts by Vγ9Vδ2 T cells (Vγ9Vδ2 T cells; 1 hour co-culture, vs IgG1): significantly enhanced | circulating blasts (Percentage of variation of the absolute number of blasts in blood before and 4 days after the end of treatment) (primary AML blasts): 37.38±39.89
